Reference: US20250002593A1 (INMAGENE PTE, published 2025)

How the values were obtained:
membrane hIL-36R [1] = molecular target: T1, membrane hIL-36R (human, UniProt Q9HB29 20-575); test: cell-based or functional assay
T1 sequence: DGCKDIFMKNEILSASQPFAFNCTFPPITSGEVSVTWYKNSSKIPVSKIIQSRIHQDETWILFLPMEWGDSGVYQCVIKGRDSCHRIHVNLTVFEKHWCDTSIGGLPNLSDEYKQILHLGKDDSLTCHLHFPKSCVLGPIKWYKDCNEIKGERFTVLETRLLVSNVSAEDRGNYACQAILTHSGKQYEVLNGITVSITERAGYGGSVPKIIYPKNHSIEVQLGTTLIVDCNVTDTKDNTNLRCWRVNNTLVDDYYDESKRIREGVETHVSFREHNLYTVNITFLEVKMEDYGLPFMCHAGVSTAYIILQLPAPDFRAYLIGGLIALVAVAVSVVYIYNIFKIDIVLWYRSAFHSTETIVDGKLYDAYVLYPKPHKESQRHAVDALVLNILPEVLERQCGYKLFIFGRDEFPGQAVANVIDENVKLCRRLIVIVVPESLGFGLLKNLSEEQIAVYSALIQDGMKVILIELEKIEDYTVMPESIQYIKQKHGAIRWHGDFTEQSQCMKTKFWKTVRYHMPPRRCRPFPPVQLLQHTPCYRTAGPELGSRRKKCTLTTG

[2] = molecular target: T2, recombinant hFcRn-his/B2M heterodimer protein (Acrobio, Cat #FCM-H82W4) (human, UniProt P55899 24-297; P61769 21-119); test: BLI (Gator) at pH 6.0, hFcRn-his/B2M on anti-his sensor, antibody analyte
T2 construct: Bought heterodimer

recombinant hIL-36R-his = molecular target: T3, recombinant hIL-36R-his (human, UniProt Q9HB29 20-337); test: ELISA on coated recombinant hIL-36R-his, HRP anti-hIgG
T3 construct: Residues 1-337 (extracellular domain) are stated for the IL-36R-his used as immunogen; The range includes the signal peptide; no cleavage site is stated; also called recombinant hIL36R protein; recombinant human IL-36R-his protein; not shown: His tag
T3 sequence: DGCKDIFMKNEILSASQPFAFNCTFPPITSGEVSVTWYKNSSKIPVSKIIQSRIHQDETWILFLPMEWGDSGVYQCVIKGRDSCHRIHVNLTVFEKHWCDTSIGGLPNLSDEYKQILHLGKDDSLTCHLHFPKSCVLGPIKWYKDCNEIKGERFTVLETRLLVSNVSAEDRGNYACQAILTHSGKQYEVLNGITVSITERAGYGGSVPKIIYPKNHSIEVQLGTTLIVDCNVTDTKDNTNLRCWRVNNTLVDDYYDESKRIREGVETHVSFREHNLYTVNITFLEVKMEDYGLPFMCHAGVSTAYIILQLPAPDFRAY

[3] = molecular target: T4, Recombinant hIL-36R protein (Acrobio, Cat #IL2-H52H6) (human, UniProt Q9HB29 20-335); test: SPR (Biacore T200, 25 C), antibody captured by Fc, hIL-36R analyte
T4 construct: Bought soluble protein; also called recombinant human IL-36R protein
T4 sequence: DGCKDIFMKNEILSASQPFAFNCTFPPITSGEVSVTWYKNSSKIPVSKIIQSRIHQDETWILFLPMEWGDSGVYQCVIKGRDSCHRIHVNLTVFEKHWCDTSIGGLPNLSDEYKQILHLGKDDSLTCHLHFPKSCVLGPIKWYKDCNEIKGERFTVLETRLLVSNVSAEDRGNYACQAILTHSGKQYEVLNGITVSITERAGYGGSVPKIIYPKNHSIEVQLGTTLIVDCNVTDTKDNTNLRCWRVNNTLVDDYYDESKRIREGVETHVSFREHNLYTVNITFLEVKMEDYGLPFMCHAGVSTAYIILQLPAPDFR

membrane hIL-36R [4] = molecular target: T1, membrane hIL-36R; test: cell-based or functional assay; remark: listed apart in the source
membrane hIL-36R [5] = molecular target: T1, membrane hIL-36R; test: flow cytometry on HEK293 cells transfected with hIL-36R, FITC anti-hIgG
[6] = molecular target: T5, Recombinant hIL1R1 protein (human, UniProt P14778 18-332, limits assumed); test: ELISA on coated hIL1R1
T5 sequence (looked up): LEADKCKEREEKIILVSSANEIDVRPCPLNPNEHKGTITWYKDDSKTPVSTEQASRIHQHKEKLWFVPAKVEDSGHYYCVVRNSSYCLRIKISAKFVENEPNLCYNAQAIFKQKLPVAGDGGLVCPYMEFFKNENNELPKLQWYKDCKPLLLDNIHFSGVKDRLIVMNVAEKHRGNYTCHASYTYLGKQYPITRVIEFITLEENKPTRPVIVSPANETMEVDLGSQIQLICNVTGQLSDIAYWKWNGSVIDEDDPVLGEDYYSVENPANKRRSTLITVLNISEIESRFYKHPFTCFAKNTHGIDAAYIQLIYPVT

membrane mouse IL-36R = molecular target: T6, membrane mouse IL-36R (mouse, UniProt Q9ERS7 22-574); test: flow cytometry on HEK293 cells transfected with mouse IL-36R
T6 construct: whole, on cells; also called mouse IL-36R on HEK293 cells transfected with pcDNA3.1-musIL36R
T6 sequence (looked up): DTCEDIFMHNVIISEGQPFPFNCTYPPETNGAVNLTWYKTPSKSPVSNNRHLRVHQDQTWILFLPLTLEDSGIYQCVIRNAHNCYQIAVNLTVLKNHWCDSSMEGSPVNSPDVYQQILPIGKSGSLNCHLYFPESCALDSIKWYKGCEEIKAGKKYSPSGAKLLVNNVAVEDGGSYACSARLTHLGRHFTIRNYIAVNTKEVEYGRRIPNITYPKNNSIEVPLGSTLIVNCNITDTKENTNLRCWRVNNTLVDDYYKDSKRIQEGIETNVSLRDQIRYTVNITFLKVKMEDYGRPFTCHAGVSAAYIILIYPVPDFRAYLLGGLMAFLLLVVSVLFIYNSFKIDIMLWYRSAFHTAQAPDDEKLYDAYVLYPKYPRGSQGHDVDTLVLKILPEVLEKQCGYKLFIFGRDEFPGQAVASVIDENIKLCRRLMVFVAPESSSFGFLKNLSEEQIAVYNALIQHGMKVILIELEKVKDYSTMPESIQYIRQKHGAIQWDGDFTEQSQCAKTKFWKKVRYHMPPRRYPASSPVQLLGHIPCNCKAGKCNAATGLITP

[7] = molecular target: T4, Recombinant hIL-36R protein (Acrobio, …); test: BLI (Gator)

IC50, IL-36α induced IL-6 release in HEK cells (membrane hIL-36R [1]): 0.11 µg/mL
IC50, IL-36α induced IL-8 release in A431 cells (membrane hIL-36R [1]): 0.195 µg/mL
IC50, IL-36α induced IL-8 release in HDF cells (membrane hIL-36R [1]): 6.96 ng/mL
IC50, IL-36α induced IL-8 release in HEK cells (membrane hIL-36R [1]): 0.129 µg/mL
IC50, IL-36α induced TNF-a release in HEK cells (membrane hIL-36R [1]): 0.0535 µg/mL
IC50, IL-36β induced IL-6 release in HEK cells (membrane hIL-36R [1]): 0.0188 µg/mL
IC50, IL-36β induced IL-8 release in A431 cells (membrane hIL-36R [1]): 0.111 µg/mL
IC50, IL-36β induced IL-8 release in HEK cells (membrane hIL-36R [1]): 0.0481 µg/mL
IC50, IL-36β induced TNF-a release in HEK cells (membrane hIL-36R [1]): 0.0235 µg/mL
IC50, IL-36γ induced IL-6 release in HEK cells (membrane hIL-36R [1]): 0.0446 µg/mL
IC50, IL-36γ induced IL-8 release in A431 cells (membrane hIL-36R [1]): 8.78 ng/mL
IC50, IL-36γ induced IL-8 release in HEK cells (membrane hIL-36R [1]): 0.0326 µg/mL
IC50, IL-36γ induced TNF-a release in HEK cells (membrane hIL-36R [1]): 5.26 ng/mL
Kd [2]: 168 nM
koff [2]: 0.0507 s⁻¹
kon [2]: 301000 M⁻¹ s⁻¹
EC50 (recombinant hIL-36R-his): 9.47 ng/mL
Kd [3]: 1.52 nM
koff [3]: 4.48e-05 s⁻¹
kon [3]: 29500 M⁻¹ s⁻¹
IC50, IL-36R reporter assay: inhibition of ligand induced luminescence in Jurkat-IL36R-IL1Racp-NFkB-luc cells (membrane hIL-36R [4]): 0.0237 µg/mL
EC50 (membrane hIL-36R [5]): 0.146 µg/mL
binding result [6]: no binding
binding result (membrane mouse IL-36R): no binding
Kd [7]: < 0.1 nM
kon [7]: 47100 M⁻¹ s⁻¹
B1: 5F7-2a8 (antibody, human IgG4 S228P, kappa)
heavy: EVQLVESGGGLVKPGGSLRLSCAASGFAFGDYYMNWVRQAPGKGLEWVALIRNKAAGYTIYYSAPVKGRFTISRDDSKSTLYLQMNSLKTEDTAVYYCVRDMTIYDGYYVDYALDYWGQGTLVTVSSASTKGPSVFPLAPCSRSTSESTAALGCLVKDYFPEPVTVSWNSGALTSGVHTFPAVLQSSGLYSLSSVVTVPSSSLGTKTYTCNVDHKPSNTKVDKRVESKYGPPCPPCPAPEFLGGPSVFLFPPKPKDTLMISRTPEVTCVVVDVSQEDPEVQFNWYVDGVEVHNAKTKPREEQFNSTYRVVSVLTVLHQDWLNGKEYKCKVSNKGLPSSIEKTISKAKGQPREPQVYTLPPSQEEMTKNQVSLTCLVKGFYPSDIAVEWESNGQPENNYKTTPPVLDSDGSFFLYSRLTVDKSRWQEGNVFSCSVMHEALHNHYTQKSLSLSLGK
light: DIVMTQSPSSVSASVGDRVTITCRASRNINIWLSWYQQKPGKAPKLFIYKASNLHTGVPSRFSGSGSGTDFTLTISSLQPEDFATYYCLQSQSYPLTFGQGTKLEIKRTVAAPSVFIFPPSDEQLKSGTASVVCLLNNFYPREAKVQWKVDNALQSGNSQESVTEQDSKDSTYSLSSTLTLSKADYEKHKVYACEVTHQGLSSPVTKSFNRGEC
notes: also called 5F7-2a8-WT; 5F7-WT
